# System: MS2 coat protein
# Test: apparent KD of MS2 coat protein; designed switch direction (-1 OFF switch, 1 ON switch): 1; higher = weaker reporter binding
# Method in brief: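 Designed RNA switches were transcribed on Illumina chips by stalled E. coli RNA polymerase and titrated with SNAP-549-labelled MS2 coat protein from 0.7 or 1.5 nM, doubling to 3 µM. Step length ran from 0.8–1.5 h at the lowest concentration to 10–20 min at the highest. The apparent KD is the median over clusters for each design, from curve-fitted normalised cluster fluorescence.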
# [1] = input ligand: microRNA oligo, concentration not stated
# [2] = Eterna round: R95, input ligand: FMN 200 uM
# [3] = Eterna round: R95, input ligand: microRNA oligo, concentration not stated
# [4] = Eterna round: R95, input ligand: none
Sequence,apparent KD of MS2 coat protein (input ligand: FMN 200 uM) [nM],apparent KD of MS2 coat protein [1] [nM],apparent KD of MS2 coat protein (input ligand: none) [nM],apparent KD of MS2 coat protein [2] [nM],apparent KD of MS2 coat protein [3] [nM],apparent KD of MS2 coat protein [4] [nM]
"AAUUAAGAUCAAGGAUAUCACGUCGAAUAGACGUGAGAAGGUGAUCAUAACAUGAGGAUCACCCAUGUAUUACAUGAAUUAAUU [SSNG1/2-B1] (Eterna round: R96, puzzle: Same State NG 1)",71.3,177,289,,,
AAAAUACAUGAGGAUCACCCAUGUAGAAACUACACAGGAUAUCGGACGGCUGUAGCCAAACGAGAAGGGUGAACCC [Ramazaza] (puzzle: Same State 1),,,,90.8,60.8,92
GUUAUACAUGAGGAUCACCCAUGUCAAUGUAGUCGAGGAUAUGGGCAGCUAUGAGGCGUACUAGAAGGCGAAGAGU [JL-ss1-3.12 ViennaUCT mod] (puzzle: Same State 1),,,,164,374,309
"UAAAGAUCGCGAGGAUAUCGCGAGGAUCACCCGUGAGAAGGCGCAGAGCCGAGGAUCACCCGGCUGAUCCUGAGGAGGAGGUAA (Eterna round: R96, puzzle: Same State NG 1)",249,410,556,,,
"GAAAAGACAUGAGGAUCACCCAUGUGGUAGACAGCUAGACGCAAGGAUAUGCAUGUGAUUCUCAUGCAGAAGGUGCUUCUAGGU [Eternabot solution 12] (Eterna round: R96, puzzle: Same State NG 3)",37.6,53.3,68.6,,,
"GCUAGAAUUAAAGCCAACAUGAGGAUCACCCAUGUAUGUUGGCAGGAUAUCGUUUGCAAAGCAAACGAGAAGGGCUAAACUAGC [Mat - Same State NG 3 - JL Mod - D4] (Eterna round: R96, puzzle: Same State NG 3)",197,100,244,,,
"GCUCGAAUCAAAACCAACAUGAGGAUCACCCAUGUAUGUUGGUAGGAUAUCGUUUGCUUUGCAAACGAGAAGGACCAAACGAGC [SameState NG3 #2] (Eterna round: R96, puzzle: Same State NG 3)",26.8,67,94.2,,,
UGUCCAGCCUGAGCUGGACAAAAGCAUGUACAUGAGGAUCACCCAUGUUCAUGUACAAGCUUUUUGCUCGUCUUAAC [salish99_208a_r3_033] (puzzle: Sensor for hsa-mir-208a),,,,354,14.1,465
"GAGUGGAGGUAAGGAUAUACAAUGAUAAUCACAGUAGAAGGUACUAACAUGAGGAUCACCCAUGUAGGACUAUACCAGAGAGGG [Parity 39 - Jieux - Same State NG 1] (Eterna round: R96, puzzle: Same State NG 1)",,13,,,,
"GUAAUAAUGUAAGGAUAUACAUGAGGAUUUCUCGUAGAAGGUACAAGACAUGAGGAUCACCCAUGUGUCGCUCCGUAGAGCGUA [Mat - Same State NG 1 - JL mod - D15] (Eterna round: R96, puzzle: Same State NG 1)",297,168,448,,,
CGUCCGGCCUGUGCUGGCCGGCGGCUUGUACAUGAGGAUCACCCAUGUUCUUGUGCUGGCUUUUUGCUCGUCUUGUG [salish99_mir208a_022] (puzzle: Sensor for hsa-mir-208a),,,,32.2,16.3,39.5
"AAUACAAAUAGUCAGGAUAUCAAAAAUAAGACAUGAGGAUCACCCAUGUAAUAAGUAAAAGUAAAUGAGAAGGGACAGGGUGAAA [JR_SS002_Sub401] (Eterna round: R96, puzzle: Same State 2)",,197,,,,
"GCGUUUAACGUAGGAUAUCGAGCUACAUGAGGAUCACCCAUGUCUUUGUAAAGUUUUUUUAAUUACGAGAAGGACGUUUUGCAU [JR_SSNG2_Sub072] (Eterna round: R96, puzzle: Same State NG 2)",18.7,26.7,35.8,,,
UUAAGCCGCGGGCAGGAUAUGUAUUAAAAUACAUGAGGAUCACCCAUGUGCAGGUGUAACACCUGACAGAAGGGCCAAUCGCGGC [Soteed - 5] (puzzle: Same State 2),,,,21.2,116,229
"AUGAAUUUGCGAGGAUAUCGUUUGUUGAAGUUACGAGAAGGCGCUCACUUUACAUGAGGAUCACCCAUGUUUAUGUUUUAUGAU [JR_SSNG1_Sub075] (Eterna round: R96, puzzle: Same State NG 1)",22,21.6,31.1,,,
"GCGGUAACUCACAUGAGGAUCACCCAUGUUCCGGAAACGGCACAGGAUAUCUGUCCGAAAAGGUCAGAGAAGGGUGAAAUCCGC [Fiskers NG3ss - 91] (Eterna round: R96, puzzle: Same State NG 3)",641,290,115,,,
AGGAAGGAGACUGAGGAUAUCGUUGAAAGGACAUGAGGAUCACCCAUGUGUAUAGGAUUGGAGAACGAGAAGGCAGAGGAGUGGA [JR_SS2_Sub045] (puzzle: Same State 2),,,,36.4,46.6,71.2
UCUUGGUUUUUGCUCGUUUUUUGUGUUGAACAUGAGGAUCACCCAUGUAUUGUACGGUCCGGUUUGAUGAUGGUCCA [JMF 46] (puzzle: Sensor for hsa-mir-208a),,,,35.6,23.9,38.3

# Reference: the supplement of paper PMC9170038
